Data as given in patent US20230242646A1 (JJP BIOLOGICS SP Z O O, published 2023).

How the values were obtained:
[1] = biological target: T1, recombinant C-terminal polyhistidine-tagged human (extracellular) CD89 (Sino Biological) (human, UniProt P24071 22-227); assay: BLI (Octet RED96), biotinylated Ab on streptavidin tips, rhuCD89 analyte, 1:1 model
T1 construct: extracellular domain; bought protein; also called rhuCD89; soluble monomeric rhuCD89
Experimental: Equilibrium dissociation constants (KD) were determined using a 1:1 Langmuir binding model in Octet® RED96 software (ForteBio).

[2] = biological target: T2, chimeric human/cynomolgus monkey CD89-hotspots on HEK293F cells (human/cynomolgus chimera, UniProt P24071 22-287); assay: FACS, transiently transfected HEK293F
T2 construct: also called dThr58, Gln59; dArg73, Arg74, Lys76
T2 chain: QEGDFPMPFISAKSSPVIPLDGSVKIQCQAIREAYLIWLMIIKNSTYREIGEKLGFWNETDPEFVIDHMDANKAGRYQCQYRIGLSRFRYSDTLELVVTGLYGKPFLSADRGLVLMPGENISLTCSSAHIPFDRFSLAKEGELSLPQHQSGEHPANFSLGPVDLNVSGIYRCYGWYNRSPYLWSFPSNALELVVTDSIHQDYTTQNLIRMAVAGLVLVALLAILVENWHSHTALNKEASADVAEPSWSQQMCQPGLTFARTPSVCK
Experimental: To this end, transient transfected HEK293F cells were put at 10 × 10⁶ cells/mL in ice-chilled phosphate-buffered saline containing 0.1% BSA (Sigma)/0.05% NaN₃ (PBS/BSA/NaN₃) supplemented with 50 µg/mL human IgGs (blocking FcY receptors; Sigma) for 10 minutes at 4° C. Then, 10 µL/tube (i.e., 0.1 × 10⁶ cells) of these cells were incubated with or without 100 µL purified mouse anti-human CD89 antibody at 10 µg/mL (in PBS/BSA/NaN₃) for 30 minutes at 4° C. […] After extensive washing in PBS/BSA/NaN₃, cells were subsequently incubated with 1:200 diluted PE-conjugated goat anti-mouse IgG Fcy-specific antibodies (Jackson ImmunoResearch) for 30 minutes at 4° C. After extensive washing in PBS/BSA/NaN₃, cells were fixed in 2% formaldehyde in PBS/BSA/NaN₃ for 30 minutes at 4° C.

[3] = biological target: T3, chimeric human/cynomolgus monkey CD89-I on HEK293F cells (human/cynomolgus chimera, UniProt P24071 22-287); assay: FACS, 10 µg/mL, transiently transfected HEK293F
T3 construct: also called dGln22 - Lys46 human EC1-CD89; I (22-46)
T3 chain: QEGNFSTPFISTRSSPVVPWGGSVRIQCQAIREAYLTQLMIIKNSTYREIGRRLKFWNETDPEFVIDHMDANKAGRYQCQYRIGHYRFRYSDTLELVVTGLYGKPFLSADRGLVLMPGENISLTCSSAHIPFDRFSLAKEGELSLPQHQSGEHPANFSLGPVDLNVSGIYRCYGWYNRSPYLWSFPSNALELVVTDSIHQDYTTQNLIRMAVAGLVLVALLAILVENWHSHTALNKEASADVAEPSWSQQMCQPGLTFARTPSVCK

[4] = biological target: T1, recombinant C-terminal …; assay: ELISA, coated rhuCD89
Experimental: After extensive washing with PBS/0.05% Tween 20, plates were blocked with PBS/0.05% Tween 20/1% BSA (Roche) for 1 hour at RT. Subsequently, plates were incubated with 50 µL titrated (in block buffer) purified mouse anti-human CD89 antibody/well for 1 hour at RT. […] After extensive washing in PBS/0.05% Tween 20, binding of antibodies on rhuCD89 was determined with 1:5,000 diluted horseradish peroxidase (HRP)-conjugated goat anti-mouse IgG Fcy-specific antibodies (Jackson ImmunoResearch) for 1 hour at RT, followed by a ready-to-use solution of TMB substrate (Invitrogen) for colorimetric detection.
After extensive washing with PBS/0.05% Tween 20, plates were blocked with PBS/0.05% Tween 20/1% BSA (Roche) for 1 hour at RT. […] After extensive washing in PBS/0.05% Tween 20, binding of antibodies on rhuCD89 was determined with 1:5,000 diluted horseradish peroxidase (HRP)-conjugated goat anti-human IgG Fcy-specific antibodies (Jackson ImmunoResearch) for 1 hour at RT, followed by a ready-to-use solution of TMB substrate (Invitrogen) for colorimetric detection.

[5] = biological target: T4, membrane full-length cynomolgus monkey CD89 on HEK293F cells (cynomolgus monkey); assay: FACS, transiently transfected HEK293F
T4 construct: also called cynoCD89; cynomolgus EC1-CD89
T4 chain: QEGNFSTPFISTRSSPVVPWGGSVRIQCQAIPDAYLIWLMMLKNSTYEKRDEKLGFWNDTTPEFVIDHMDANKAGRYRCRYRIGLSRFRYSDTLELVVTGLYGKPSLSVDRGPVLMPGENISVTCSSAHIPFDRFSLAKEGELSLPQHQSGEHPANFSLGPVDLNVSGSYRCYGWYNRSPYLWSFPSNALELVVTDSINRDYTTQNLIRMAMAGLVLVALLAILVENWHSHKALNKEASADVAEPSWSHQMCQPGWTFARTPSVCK
Experimental: To this end, transient transfected HEK293F cells were put at 10 x 10⁶ cells/mL in ice-chilled phosphate-buffered saline containing 0.1% BSA (Sigma)/0.05% NaN₃ (PBS/BSA/NaN₃) supplemented with 50 µg/mL human IgGs (blocking FcY receptors; Sigma) for 10 minutes at 4° C. Then, 10 µL/tube (i.e., 0.1 × 10⁶ cells) of these cells were incubated with or without 100 µL purified mouse anti-human CD89 antibody at 10 µg/mL (in PBS/BSA/NaN₃) for 30 minutes at 4° C. […] After extensive washing in PBS/BSA/NaN₃, cells were subsequently incubated with 1:200 diluted PE-conjugated goat anti-mouse IgG Fcy-specific antibodies (Jackson ImmunoResearch) for 30 minutes at 4° C. After extensive washing in PBS/BSA/NaN₃, cells were fixed in 2% formaldehyde in PBS/BSA/NaN₃ for 30 minutes at 4° C.

B1: CD89/IgA blocking mouse anti-human CD89-specific antibody 10E7 (antibody, V domains shown)
VH: EVQLVESGGGLVQPGGSLKLSCAASGLTFSSYGMSWVRQTPDKRLELVATINGNGDITYYPDSVKGRFTISRDNAKNTLYLQMSSLKSEDTAMYYCARDYDYDYAMDYWGQGTSVTVSS
VL: DIQMTQSTSSLSASLGDSVTISCRASQDIINYLNWYQQKPDGTVKLLIYYTSRLHSGVPSRFSGSGSGTEYSLTVSNLEKEDIATYFCQQGKTLPYTFGGGTKLEIK
notes: biotinylated in the Octet assay; also called mouse 10E7
Kd [1]: 1.67 nM
koff [1]: 0.00111 s⁻¹
kon [1]: 687000 M⁻¹ s⁻¹
binding result [2]: no binding (tested: 10 µg/mL)
binding result [3]: binds
EC50 [4]: 0.02 µg/mL
binding result [5]: no binding (tested: 10 µg/mL)
